Data taken from US20220372154A1 (APEXIGEN, published 2022).
Numbering of substitutions follows the chain as printed. Each block holds one binder with its values, some of them ahead of it.

What was measured:
TNFR-Fc [1] = target: T1, TNFR-Fc (UniProt P20333 23-257, limits assumed); assay: TNF-α blocking ELISA (soluble)
T1 construct: Printed only as TNFR-Fc; not shown: Fc part
T1 sequence (looked up): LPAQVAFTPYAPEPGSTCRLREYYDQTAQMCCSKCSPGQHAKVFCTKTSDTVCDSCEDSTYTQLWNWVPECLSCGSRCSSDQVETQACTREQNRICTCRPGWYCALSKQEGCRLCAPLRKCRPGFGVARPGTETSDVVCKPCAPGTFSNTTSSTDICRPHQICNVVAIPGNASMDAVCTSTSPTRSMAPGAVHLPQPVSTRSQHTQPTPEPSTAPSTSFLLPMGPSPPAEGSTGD

[2] = target: T2, human TNFR2 expressed on cells (human, UniProt P20333 23-461); assay: flow cytometry, cell-expressed human TNFR2
T2 construct: whole, on cells; also called hTNFR2 (cell); CHO-TNFR2
T2 sequence (looked up): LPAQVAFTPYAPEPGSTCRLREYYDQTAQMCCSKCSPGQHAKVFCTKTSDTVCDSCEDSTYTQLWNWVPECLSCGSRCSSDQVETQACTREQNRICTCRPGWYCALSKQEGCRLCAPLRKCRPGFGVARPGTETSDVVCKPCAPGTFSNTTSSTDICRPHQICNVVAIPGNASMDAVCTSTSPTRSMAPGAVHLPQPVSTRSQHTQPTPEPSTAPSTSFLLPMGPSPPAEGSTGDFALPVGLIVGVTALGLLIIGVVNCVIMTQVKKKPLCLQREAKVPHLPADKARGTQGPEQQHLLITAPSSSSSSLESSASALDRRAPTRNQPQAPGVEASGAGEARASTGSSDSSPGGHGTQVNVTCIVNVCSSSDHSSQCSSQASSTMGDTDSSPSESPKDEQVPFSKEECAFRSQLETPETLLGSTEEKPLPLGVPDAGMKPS

[3] = target: T3, cynomolgus TNFR2-His tagged protein (cynomolgus, UniProt A0A2K5VET2 132-366); assay: ELISA, cynomolgus TNFR2
T3 construct: also called Cyno TNFR2; cynomolgus TNFR2 protein; not shown: His tag
T3 sequence: T1 sequence (looked up) with S16G, S36P, P117Q, N164H, E210A, S216G, M223V

[4] = target: T4, human TNFR2-His tagged protein (soluble) (human, UniProt P20333 23-257); assay: ELISA, soluble human TNFR2
T4 construct: also called hTNFR2 (soluble); soluble TNFR2-His; not shown: His tag
T4 sequence (looked up): T1 sequence (looked up)

[5] = target: T2, human TNFR2 expressed on cells; assay: cell binding on TNFR2-overexpressing (OE) cells
[6] = target: T2, human TNFR2 expressed on cells; assay: blocking of biotinylated TNF-α on TNFR2-CHO cells, flow cytometry
Protocol: TNFR2-overexpressing CHO cells were plated at 100,000 cells per well. Cells were incubated with the indicated antibodies for 30 minutes on ice. […] Cells were analyzed using Cytoflex or MACSQuant flow cytometer. Assay was repeated twice.

[7] = target: T3, cynomolgus TNFR2-His tagged protein; assay: ELISA on coated cynomolgus TNFR2-His
Method in brief: (§1)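 TNFR2-His ELISAs: human or cynomolgus protein coated at 1 μg/mL overnight at 4 °C, BSA-blocked, antibodies 1 h RT, anti-human HRP, TMB 3–5 min. Flow: 200,000 human TNFR2-CHO cells, antibody 1 h, anti-human IgG BV421 20 min. Blocking ELISA: TNFR-Fc coated 1 ug/mL, antibodies 1 h RT, TMB 5–7 min.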

[8] = target: T5, TNFR2 PLAD or CRD1 peptide (aa 17-54 of mature TNFR2) (human); assay: peptide-binding ELISA (potential peptide bin)
T5 construct: Range counted on mature TNFR2
T5 peptide: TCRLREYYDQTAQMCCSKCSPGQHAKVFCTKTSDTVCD

soluble mouse TNFR2 = target: T6, soluble mouse TNFR2 (mouse, UniProt P25119 23-258, limits assumed); assay: binding screen on soluble mouse TNFR2 (mouse cross-reactivity)
T6 sequence (looked up): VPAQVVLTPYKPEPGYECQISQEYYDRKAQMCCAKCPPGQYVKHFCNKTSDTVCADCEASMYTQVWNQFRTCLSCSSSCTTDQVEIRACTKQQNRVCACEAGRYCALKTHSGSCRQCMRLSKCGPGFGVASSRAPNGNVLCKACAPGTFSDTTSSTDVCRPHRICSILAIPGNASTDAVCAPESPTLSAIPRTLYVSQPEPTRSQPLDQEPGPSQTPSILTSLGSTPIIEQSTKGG

[9] = target: T2, human TNFR2 expressed on cells; assay: flow cytometry on CHO cells expressing human TNFR2
Method in brief: as §1

TNFR-Fc [10] = target: T1, TNFR-Fc; assay: TNF-α blocking ELISA on coated TNFR-Fc
Method in brief: as §1

[11] = target: T4, human TNFR2-His tagged protein (soluble); assay: ELISA on coated human TNFR2-His
Method in brief: as §1

[12] = target: T7, human TNFR1-His tagged protein (human, UniProt P19438 30-211, limits assumed); assay: ELISA on coated TNFR1-His (1 ug/mL), OD 450 nm
T7 construct: also called soluble human TNFR1; not shown: His tag
T7 sequence (looked up): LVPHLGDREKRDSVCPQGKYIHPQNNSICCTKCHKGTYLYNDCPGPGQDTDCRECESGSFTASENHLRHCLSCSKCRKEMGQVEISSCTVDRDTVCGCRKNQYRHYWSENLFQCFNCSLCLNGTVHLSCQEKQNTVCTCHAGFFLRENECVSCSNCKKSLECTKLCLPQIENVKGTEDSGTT
Protocol: TNFR1-His tagged protein was coated on ELISA plates at 1 μg/mL at 4° C. overnight. Plates were washed, blocked, and antibodies were added at indicated concentrations for 1 hour at RT. Antibodies were washed and detected with anti-human IgG HRP for 1 hour. Assay was developed using TMB substrate for 10 minutes.

- IC50 (TNFR-Fc [1]): 2.29 nM
- EC50 [2]: 0.408 nM
- EC50 [3]: 0.058 nM
- EC50 [4]: 0.098 nM
- Kd [5]: 0.291 nM
- IC50 [6]: 0.567 nM
B1: humanized antibody h600_24_124 (antibody, V domains shown)
VH: EVQLVESGGGLVQPGGSLRLSCAASGIDFSSYGISWVRQAPGKGLEWVAYIYPDYGSTDYATWVNGRFTISLDNSKNTLYLQMNSLRAEDTAVYYCASGYASSSGYYDPKYFGLWGQGTLVTVSS
VL: DIQMTQSPSSLSASVGDRVTITCRASEDIESYLAWYQQKPGKAPKLLIYDASDLASGVPSRFSGSGSGTDFTLTISSLQPEDFATYYCQHGFYTSRSDSVFGGGTKVEIK

- IC50 (TNFR-Fc [1]): 0.465 nM
- EC50 [2]: 0.587 nM
- EC50 [3]: 0.046 nM
- EC50 [4]: 0.051 nM
- Kd [5]: 0.387 nM
- IC50 [6]: 7.02 nM
B2: humanized antibody h600_25_9 (antibody, V domains shown)
VH: EVQLVESGGGLVQPGGSLRLSCAASGFSLSTYDINWVRQAPGKGLEWVGIIYTGGITNFANWAKGRFTISRDNSKNTLYLQMNSLRAEDTAVYYCARGGYDSEGYVYPDAFDPWGQGTLVTVSS
VL: DIQMTQSPSSLSASVGDRVTITCQASESISNLLAWYQQKPGKAPKLLIYRASILTSGVPSRFSGSGSGTDFTLTISSLQPEDFATYYCQHGYTGTNVQNVFGGGTKVEIK

- EC50 [7]: 0.104 nM
- binding result [8]: binds
- binding result (soluble mouse TNFR2): no binding
- EC50 [9]: 0.277 nM
- IC50 (TNFR-Fc [10]): 5.63 nM
- EC50 [11]: 0.147 nM
B3: chimeric antibody clone 6 (rab600_23_6) (antibody, V domains shown)
VH: QEQLKESGGRLVTPGTPLTLTCTASGFSLSSYYVSWVRQAPGKGLEWIGIIHSDGSIYYATWAKGLFTISRTSTTVDLKATSLTTEDTATYFCVRGYPGYYTSTFNRLDLWGQGTLVTVSS
VL: AYDMTQTPASVEVAVGGTVTIKCQASQTISNELSWYQQKSGQPPKLLIYRASTLASGVPSRFSGSGSGTEFTLTISGVECDDAATYYCQQGYTTNNVDNLFGGGTEVVVK

- EC50 [7]: 4.04 nM
- binding result [8]: binds
- binding result (soluble mouse TNFR2): no binding
- EC50 [9]: 9.44 nM
- EC50 [11]: 7.39 nM
B4: chimeric antibody clone 81 (rab600_23_81) (antibody, V domains shown)
VH: QSLEESGGRLVTPGTPLTLTCTASGFSLSNYYVSWVRQAPGKGLEWIGIIETGGNLYYASWAKGRFSLSKTSTTVDLKITSPTAEDTATYFCVRGYPGYYTHTFNRLDLWGQGTLVTVSS
VL: B3 VL with Q27E, T28S, S30A, Q38R, S63K, E70Q, N95I, V97I

- binding result [12]: binds
- EC50 [2]: 12.1 nM
- EC50 [3]: 1.86 nM
- EC50 [4]: 0.72 nM
- Kd [5]: 12.1 nM
B5: humanized antibody clone 25-31 (h600_24_31) (antibody, V domains shown)
VH: EVQLVESGGGLVQPGGSLRLSCAASGFSLSSYDMSWVRQAPGKGLEWVGYIWSSGSAYYATWAEGRFTISRDNSKNTLYLQMNSLRAEDTAVYYCARRYVGSSYDTWGQGTLVTVSS
VL: DIQMTQSPSSLSASVGDRVTITCQSSQSVSSNNYLSWYQQKPGKAPKLLIYAASYLASGVPSRFSGSGSGTDFTLTISSLQPEDFATYYCLGDYDNDIDHAFGGGTKVEIK
notes: its heavy-chain CDRs are those of rab600_25_31

- IC50 (TNFR-Fc [1]): 3.52 nM
- EC50 [2]: 0.377 nM
- EC50 [3]: 0.131 nM
- EC50 [4]: 0.149 nM
- Kd [5]: 0.245 nM
- IC50 [6]: 0.447 nM
B6: humanized antibody h600_24_2 (antibody, V domains shown)
VH: EVQLVESGGGLVQPGGSLRLSCAASGFSFSVSYWICWVRQAPGKGLEWVACTDGGDGSSYYASWVNGRFTISRDNSKNTLYLQMNSLRAEDTAVYYCARDRSDVFNLWGQGTLVTVSS
VL: DIQMTQSPSSLSASVGDRVTITCQAGQSIDSNLAWYQQKPGKAPKLLIYRASTLASGVPSRFSGSGSGTDFTLTISSLQPEDFATYYCQSFYVTISAMVDYPFGGGTKVEIK

- IC50 (TNFR-Fc [1]): 2.96 nM
- binding result [12]: binds
- EC50 [2]: 0.239 nM
- EC50 [3]: 0.054 nM
- EC50 [4]: 0.091 nM
- Kd [5]: 0.201 nM
- IC50 [6]: 0.323 nM
B7: humanized antibody h600_HB_11D7.1 (antibody, V domains shown)
VH: EVQLVESGGGLVQPGGSLRLSCAASGFDFSRYYMSWVRQAPGKGLEWVGYIDPIFGNTYYASWVNGRFTISSDNAKNSLYLQMNSLRAEDTAVYYCARDGDAGYDGYGYGTDLWGQGTLVTVSS
VL: DIQMTQSPSSLSASVGDRVTITCQASENIYSGLAWYQQKPGKVPKLLIVSAFTLASGVPSRFSGSGSGTDFTLTISSLQPEDVATYYCQTYYYGSVTYFNAFGGGTKVEIK

- IC50 (TNFR-Fc [1]): 3.81 nM
- EC50 [2]: 0.672 nM
- EC50 [3]: 0.109 nM
- EC50 [4]: 0.131 nM
- Kd [5]: 0.539 nM
- IC50 [6]: 0.566 nM
B8: humanized antibody h600_HB_55F6.6 (antibody, V domains shown)
VH: EVQLVESGGGLVQPGGSLRLSCAASGFSFTNNYYMCWVRQAPGKGLEWVGCIYPSIVGPTYYANWAKGRFTISRDNSKNTLYLQMNSLRAEDTAVYYCVRDRYDDYGDYFNLWGQGTLVTVSS
VL: DIQMTQSPSSLSASVGDRVTITCQASQSIYNYLSWYQQKPGKAPKRLIYYASTLASGVPSRFSGSGSGTDFTLTISSLQPEDFATYYCQSNSGVNGNRYGNAFGGGTKVEIK
notes: also called 55F6.1
